From PMC6817756
Each block holds one molecule with its values, some of them ahead of it.

Tests used:
[1] = system: ME-47; experiment: fluorescence polarization; conditions: FP: 10 mM Tris-HCl, 50 mM KCl, 1 mM EDTA, 5 mM MgCl2, 10 mM DTT, 2 nM DNA stock mixed 20 ul + 20 ul protein, 30 min, pH and temperature not stated; pulldown: …
[2] = molecular target: Omomyc (recombinant, bacterially expressed) (UniProt P01106); experiment: native gel or EMSA; native gel electrophoresis of purified recombinant Omomyc (the legend of Fig. 1A speaks of SDS-PAGE under nonreduced and reduced conditions)
[3] = molecular target: Omomyc (recombinant, bacterially expressed) (UniProt P01106); experiment: SEC; size exclusion chromatography of purified Omomyc, data not shown
[4] = molecular target: Myc (human (endogenous in HCT116)) (UniProt P01106)
[5] = molecular target: T1, Omomyc (synthetic or recombinant) (UniProt P01106 365-454, E425T;E432I;R438Q;R439N); experiment: fluorescence polarization; table heading: affinity; FP: 10 mM Tris-HCl, 50 mM KCl, 1 mM EDTA, 5 mM MgCl2, 10 mM DTT, 2 nM DNA stock mixed 20 ul + 20 ul protein, 30 min, pH and temperature not stated; pulldown: 50 mM Tris-HCl pH 7.5, 5% glycerol, 1.5 mM MgCl2, 150 mM NaCl, 1 mM DTT, IGEPAL, 4 C; conditions: chain copies: 2, blunt
[6] = molecular target: MYC bHLH peptide (MYC/MYC) (UniProt P01106 365-454); experiment: as above; conditions: chain copies: 2, blunt
[7] = molecular target: MYC bHLH peptide (in MYC/MAX);MAX bHLH peptide (in MYC/MAX) (;, UniProt P01106;P61244 365-454;22-103, |); experiment: as above; conditions: tags: ;, copies: 1;1, blunt
[8] = molecular target: T2, MAX bHLH peptide (MAX/MAX) (UniProt P61244 22-103); experiment: fluorescence polarization; text: fails to bind; FP: 10 mM Tris-HCl, 50 mM KCl, 1 mM EDTA, 5 mM MgCl2, 10 mM DTT, 2 nM DNA stock mixed 20 ul + 20 ul protein, 30 min, pH and temperature not stated; pulldown: 50 mM Tris-HCl pH 7.5, 5% glycerol, 1.5 mM MgCl2, 150 mM NaCl, 1 mM DTT, IGEPAL, 4 C; conditions: chain copies: 2; label: 5'-FAM; blunt
[9] = molecular target: T1, Omomyc (synthetic or recombinant); experiment: fluorescence polarization; synthetic Omomyc; FP: 10 mM Tris-HCl, 50 mM KCl, 1 mM EDTA, 5 mM MgCl2, 10 mM DTT, 2 nM DNA stock mixed 20 ul + 20 ul protein, 30 min, pH and temperature not stated; pulldown: 50 mM Tris-HCl pH 7.5, 5% glycerol, 1.5 mM MgCl2, 150 mM NaCl, 1 mM DTT, IGEPAL, 4 C; conditions: chain copies: 2; blunt
[10] = molecular target: T2, MAX bHLH peptide (MAX/MAX); experiment: fluorescence polarization; table heading: affinity; FP: 10 mM Tris-HCl, 50 mM KCl, 1 mM EDTA, 5 mM MgCl2, 10 mM DTT, 2 nM DNA stock mixed 20 ul + 20 ul protein, 30 min, pH and temperature not stated; pulldown: 50 mM Tris-HCl pH 7.5, 5% glycerol, 1.5 mM MgCl2, 150 mM NaCl, 1 mM DTT, IGEPAL, 4 C; conditions: chain copies: 2; blunt

Molecule: CCCCCACCACGTGGTGCCTGA (double strand) [E box DNA (FP probe)]
- Kd [1]: 117 nM

Molecule: CCCCCACCACCTGGTGCCTGA (double strand) [VEGFA-1 E box]
- Kd [1]: 1080 nM

- stoichiometry N [2]: 2
- stoichiometry N [3]: 2
- cellular thermal shift assay (CETSA) in Ramos cell lysates with 20 μM Omomyc: change in the aggregation temperature (Tagg) of Myc (destabilisation) [4]: 6 °C
- cellular thermal shift assay (CETSA), isothermal dose-response fingerprint at 54°C in Ramos cell lysates: EC50 of Omomyc for thermal destabilisation of Myc [4]: 16000 nM
Molecule: Omomyc (recombinant, bacterially expressed) (from UniProt P01106 369-421) (domain or fragment)

Molecule: CCCCCACCACGCGGTGCCTGA (double strand) [VEGFA-2 E box]
- Kd [1]: 3110 nM

B1: VEGFA-2 E box (dsDNA)
DNA 1: CCCCCACCACGCGGTGCCTGA
DNA 2: TCAGGCACCGCGTGGTGGGGG
- Kd ([5]; label: 5'-FAM): 99.2 nM
- Kd ([6]; label: 5'-FAM): 111 nM
- Kd ([7]; label: 5'-FAM): 451 nM
- Kd [8]: 2020 nM

B2: E box DNA (FP probe) (dsDNA)
DNA 1: CCCCCACCACGTGGTGCCTGA
DNA 2: TCAGGCACCACGTGGTGGGGG
- Kd [9]: ~22 nM
- Kd [5]: 107 nM
- Kd [6]: 159 nM
- Kd [7]: 71.4 nM
- Kd [10]: 258 nM

B3: VEGFA-1 E box (dsDNA)
DNA 1: CCCCCACCACCTGGTGCCTGA
DNA 2: TCAGGCACCAGGTGGTGGGGG
- Kd ([5]; label: 5'-FAM): 103 nM
- Kd ([6]; label: 5'-FAM): 140 nM
- Kd ([7]; label: 5'-FAM): 397 nM
- Kd [8]: 3390 nM
